Measurements: patent publication US7927850B2, “Composition containing trehalose synthase and methods of use thereof” (Academia Sinica, priority 2006, dated 2011)

Experiments:
[1] = Enzyme assay: amount of trehalose produced from maltose by PTTS; format: biochemical, Picrophilus torridus
Method: (§1) The activity of PTTS was assayed by measuring the amount of trehalose produced from maltose. The standard reaction was performed by adding 1.5 μL purified enzyme into 50 μL reaction solution containing 50 mM sodium phosphate (pH 6.0) and 150 mM maltose and incubating in a 45° C. water bath for 25 min. The assay time was under the linear range of enzyme reaction. The reaction was terminated by heating the mixture in boiling water for 15 min. One unit of enzyme activity was defined as the amount of enzyme that catalyzes the formation of 1 μmol of trehalose per min. Kinetic analysis was performed under conditions of pH 6.0 and 45° C. for 5 min in 50 mM sodium phosphate buffer containing substrate (maltose, trehalose, or maltose plus a constant 10 mM of glucose) at various concentrations. The resulting data were analyzed offline with Origin 6.0 software (Microcal, Northampton, Mass.). All experiments were carried out in duplicate or triplicate.
(§2) The amount of trehalose, glucose, and maltose after each enzymatic reaction was measured using a high performance liquid chromatography (HPLC) (SFD 2100) system equipped with an RI detector (Schambeck S F D, RI 2000) at a flow rate of 0.9 mL/min. A carbohydrate analysis column (HYPERSIL-100 Amino, Thermo Hypersil-Keystone) equilibrated with 75% acetonitrile, 24% Milli-Q water, and 1% formic acid was used. The retention times of glucose, maltose, and trehalose were 8.0, 11.2, and 12.5 min, respectively.

[2] = Effects of substrate concentration and temperature on the maximum yield of trehalose; format: biochemical, Picrophilus torridus; conditions: 150 mM maltose, pH 6.0, 60° C., three days
[3] = Kinetic analysis of PTTS with maltose or trehalose as substrate; format: biochemical, Picrophilus torridus; conditions: pH 6.0, 45° C., 5 min
Method: as §1
Kinetics Analysis. Kinetic parameters of PTTS were investigated at pH 6.0 and 45° C. for 5 min using maltose or trehalose as substrate (FIG. 7). […] This kinetic data is useful for determining the baseline activity of the enzyme and enables one of skill in the art to use this activity as a criterion for the isolation or construction of variants having substantially equivalent enzymatic activity.

[4] = format: biochemical, Picrophilus torridus
Method: FIG. 2 is a graph which illustrates the effects of pH on the activity and stability of Picrophilus torridus trehalose synthase. The enzyme activities at various pH levels were examined at the maltose concentration of 150 mM and temperature of 45° C. for 25 min. The pH stability of Picrophilus torridus trehalose synthase enzyme was examined by measuring the residual activity of enzyme at pH 6.0 after pre-incubation in various pH levels at 45° C. for 20 min. The solid square (▪) and circle (●) notations indicate the enzyme activity under 50 mM sodium phosphate buffer (pH 6.0˜8.5) and 50 mM acetate buffer (pH 3.5˜6.0), respectively. The open square (□) and circle (◯) notations represent the pH stability under 50 mM sodium phosphate buffer (pH 6.0˜8.5) and 50 mM acetate buffer (pH 3.5˜6.0), respectively.
FIG. 3 is a graph which illustrates the effects of temperature on the activity and stability of Picrophilus torridus trehalose synthase. The enzyme activities at various temperatures were examined at the maltose concentration of 150 mM and pH 6.0 for 25 min. To examine temperature stability, the residual activity of the enzyme was measured at 45° C. after pre-incubation of the purified enzyme at different temperatures (4° C.˜100° C.) and pH 6.0 for 20 min. The solid circle (●) and open circle (◯) notations denote the enzyme activity and temperature stability, respectively, under various temperatures.
as §1
Effects of pH and Temperature on the Activity and Stability of Recombinant PTTS. The pH dependence of PTTS was studied at 45° C. in 50 mM acetate buffer (pH 3.5-6.0) or 50 mM phosphate buffer (pH 6.0-8.5) using 150 mM maltose as a substrate. […] The effects of temperature on PTTS activity and stability are depicted in FIG. 3. The optimum temperature was 45° C. and the enzyme maintained stability up to 60° C. at pH 6.0 for 20 min.

[5] = Effects of substrate concentration and temperature on the maximum yield of trehalose; format: biochemical, Picrophilus torridus
Method: FIG. 4 is a graph which illustrates the effects of substrate concentration on the maximum yield of trehalose by Picrophilus torridus trehalose synthase. Purified enzyme was incubated with different concentrations of maltose in 50 mM sodium phosphate buffer (pH 6.0) at 45° C. Samples were collected at various intervals of reaction time and analyzed by HPLC. The symbols which indicated different concentrations of maltose are open square (□) 1 M; solid square (▪), 500 mM; solid triangle (▴), 250 mM; open rhombus (⋄), 150 mM, and open circle (◯), 50 mM.
FIG. 5 is a series of graphs illustrating the effects of temperature on the formation of trehalose (5A) and glucose (5B) from maltose (5C) by Picrophilus torridus trehalose synthase. Reaction mixtures containing purified Picrophilus torridus trehalose synthase, 150 mM maltose and pH 6.0 sodium phosphate buffer were incubated at various temperatures for 72 h. Samples were collected at various intervals and analyzed by HPLC. The symbols which indicated different reaction temperatures are open square (□) denoting temperature of 20° C.; solid square (▪) denoting temperature of 30° C.; solid triangle (▴) denoting temperature of 45° C.; and open triangle (Δ) denoting temperature of 0° C.
as §2
Effects of Substrate Concentration and Temperature on the Maximum Yield of Trehalose. The effects of the substrate concentration on the yield of trehalose by PTTS were examined at pH 6.0, 45° C., and various maltose concentrations. A maximum conversion was reached after 24 hour incubation for each reaction. The final yield of trehalose increased as the substrate concentration increased. […] Therefore, a higher maximum yield was gained at a lower temperature.

[6] = 150 mM maltose, pH 6.0, 20° C., three days
[7] = 150 mM maltose, pH 6.0, 30° C., three days
[8] = 150 mM maltose, pH 6.0, 45° C., three days
[9] = 150 mM maltose, pH 6.0, 60° C., three days

B1: PTTS: recombinant Picrophilus torridus trehalose synthase with C-terminal linker and His(6)-tag (SEQ ID NO: 4), expressed in E. coli (protein, listed as Picrophilus torridus)
chain: MLDNNGLWYRDAVFYEVPVKSFYDSNNDGIGDFNGLTMKLDYLKKLGVDALWLLPFYKSPLKDDGYDISDYYSILPEYGTIDDFKNFIDTAHSMNIRVIADLVLNHVSDQHPWFIESRSSIDNPKRDWFIWSDTPEKFKEARIIFIDTEKSNWTYDPETKQYYFHRFYSSQPDLNYDNPDVRNEVKKVIRYWLDLGLDGFRADAVPYLFKRENTNCENLPETHNFFKEIRKMMDEDYPGTILLAEANQWPTETKAYFGNGDEFHMAFNFPLMPRIFIALARSDYYPIMDIIKQTLPIPDNCDWCIFLRNHDELTLEMVTDSERDIMYREYAKIPKMRLNLGIRRRLAPLADNDINTIELLNALIFSLPGTPIIYYGDEIGMGDNIYLGDRNGVRTPMQWSYDRNAGFSMADSEQLYSPVITNPNYHYESVNVEAELRLSSSLLNWMIKIIHVRKDYKELLGRGSIKFIEQGNKRVLSYIREYENQRMLCLFNLSRNPTYVELNLSDYIGLKPIEAITKAAFPRIKDDRYFITMTPRSFFWFNLIVPERDDSYDLIGEDANSRVDKLAAALEHHHHHH
For B1, the specific activity ([1]; purified recombinant His-tag PTTS after Ni-column, 1 unit = 1 μmol trehalose per min) was 80 units per mg of protein, the “specific activity toward maltose” value ([1]; recombinant PTTS, estimated) was “about 80 units/mg protein” and the “specific activity as share of that of T. aquaticus trehalose synthase” value ([1]; toward maltose) was “about 60%”. For the same molecule, the “specific activity relative to M. smegmatis trehalose synthase” value ([1]; toward maltose) was “about 2.8 fold”, the “specific activity relative to P. stutzeri CJ38 trehalose synthase” value ([1]; toward maltose) was “roughly equal” and the “specific activity relative to Pimelobacter trehalose synthase” value ([1]; toward maltose) was “about 4.7 fold”. For the same molecule, the “maximum conversion of maltose into trehalose” value [2] was 50%, the “enzyme efficiency (kcat/KM) toward maltose relative to trehalose” value [3] was 2.5 fold and the “kcat for trehalose relative to maltose” value [3] was “twofold higher”. For the same molecule, the “activity at pH 5.0” value ([4]; 45° C., 150 mM maltose) was “maintained high activity”, the “optimum pH” value ([4]; 45° C., 150 mM maltose, acetate or phosphate buffer) was 6.0 and the “activity maintained at pH 5.0” value ([4]; pH 5.0) was 80%. It also gave an optimum temperature ([4]; pH 6.0, 150 mM maltose) of 45 °C, a glucose content [5, 6] of 3.6% and a maltose content [5, 6] of 25.4%. For the same molecule, the “maximum conversion of maltose into trehalose” value [5, 6] was 71%, the glucose content [5, 7] was 4.3% and the maltose content [5, 7] was 27.6%. The “maximum conversion of maltose into trehalose” value [5, 7] was 68%, the glucose content [5, 8] was 7.8% and the maltose content [5, 8] was 31.2%. The “maximum conversion of maltose into trehalose” value [5, 8] was 61%, the glucose content [5, 9] was 19.2% and the maltose content [5, 9] was 31.3%. For the same molecule, the “incubation time to reach maximum conversion” value ([5]; pH 6.0, 45° C., each maltose concentration) was 24 h and the “maximum conversion of maltose into trehalose” value ([5]; pH 6.0, 45° C., various maltose concentrations (50 mM to 1 M)) was “around 60%”.
